B1: library; numbered along this chain (parent)
chain: MATDAALRRLLRLHRTEIAVAVDSAFPLLHALADHDVVPEDKFQETLHLKEKEGCPQAFHALLSWLLTQDSTAILDFWRVLFKDYNLERYGRLQPILDSFPKDVDLSQPRKGRKPPAVPKALVPPPRLPTKRKASEEARAAAPAALTPRGTASPGSQLKAKPPKKPESSAEQQRLPLGNGIQTMSASVQRAVAMSSGDVPGARGAVEGILIQQVFESGGSKKCIQVGGEFYTPSKFEDSGSGKNKARSSSGPKPLVRAKGAQGAAPGGGEARLGQQGSVPAPLALPSDPQLHQKNEDECAVCRDGGELICCDGCPRAFHLACLSPPLREIPSGTWRCSSCLQATVQEVQPRAEEPRPQEPPVETPLPPGLRSAGEEVRGPPGEPLAGMDTTLVYKHLPAPPSAAPLPGLDSSALHPLLCVGPEGQQNLAPGARCGVCGDGTDVLRCTHCAAAFHWRCHFPAGTSRPGTGLRCRSCSGDVTPAPVEGVLAPSPARLAPGPAKDDTASHEPALHRDDLESLLSEHTFDGILQWAIQSMARPAAPFPS

Variants of: B1
Assay: AIRE transcriptional activation functional score (insulin promoter-GFP; nonsense median 0, synonymous median 1) (normalised score); higher = higher AIRE activity (more reporter activation)
Conditions: with insulin promoter-GFP reporter in HEK293
Experimental: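 Deep mutational scan of full-length human AIRE (codon-optimized cDNA, DT-POPCode NNN libraries over three regions) integrated at a Bxb1 landing pad in HEK293 cells carrying an insulin core promoter-GFP reporter at a Flp-In site. Cells were sorted for the top 10% GFP about 14 days after transfection. Variant frequency log-ratios (select vs non-select, TileSeq) were rescaled so that the nonsense median is 0 and the synonymous median is 1, then averaged over biological replicates.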

AIRE transcriptional activation functional score of substitutions, site by site:
Q290: N 1.19; K 0.932; R 1.2; T 0.55; C 0.819; H 0.981; E 0.67
D288: C 1.26; G 1.14; L 1.19; K 0.535; Y 1.23; E 0.565; F 1.5; V 1.14; T 0.903; A 1.19; R 1.08; W 1.59; N 0.786; M 1.31; Q 0.949; S 1.24; P 1.15; I 1.38; H 0.855
K294: Y 0.634; V 0.546; T 0.822; W -0.487; S 0.706; M 0.969; C 1; I 0.609; A 0.459; H 0.554; R 1.17; N 0.937; Q 1.43; P 1.21; E 0.357; L 0.857; F 0.447; G 0.728
P289: L 0.891; M 1.35; G 1.14; K 1.39; E 0.531; F 0.919; R 1.19; C 1.08; V 1.09; A 0.95; S 1.3; T 1.37; H 1.22; W 1.43; Q 0.942; D -0.468; N 0.167
C302: R 0.411; L 0.555; A 0.669; I 0.572; N 0.531; Q 0.705; S 0.665; F 0.63; W 0.72; K 0.3; G 0.54; E 0.654; P 0.251; Y 0.467; T 0.263; V 0.651; D 0.537; H 0.701
S287: L 1.38; R 1.04; N 1.13; Y 1.17; P 0.464; V 0.972; I 1.07; W 1.12; H 0.964; K 0.385; Q 1.24; T 1.44; M 1.29
D297: I 0.487; P 1.29; L 0.697; W 0.671; A 0.963; M 0.682; S 0.838; T 0.153; C 0.929; R 0.34; G 0.852; Y 0.771; E 0.884; K 1.49; V 0.909; N 0.25; Q 1.32; H 0.894; F 0.8
E298: M 0.204; S 0.818; V 0.91; C -0.0529; A 0.0161; P 0.696; Q 1.15; H -2.02; K 1.07; T 0.228; N 1.56; F 0.727; R 0.634; I 1.03; G 1.13; L 0.839; D 0.987; W 1.13; Y 0.785
Q293: E 1.33; S 0.559; K 1.16; I 0.523; A 0.738; Y 0.958; D 0.479; L 1.08; W 1.35; C 0.906; T -0.386; M 0.829; F 1.1; H 1.18; G 1; N 0.746; V 0.932; R 0.982; P 0.602
A300: V 1.09; N 0.883; D 1.26; S 0.968; W 1.22; E 0.84; H 0.907; T 0.981; K 1.08; Q 0.413; L 0.917; R 1.14; I 1.11; P 1.05; Y 0.856; G 0.768; F 1.57; C 1.39

Reference: the supplement of paper PMC12667976
